# Laboratory results reported in US10208087B2, “Peptides” (Hoffmann-La Roche Inc., priority 2014, dated 2019).
# Counter-ions that a name gives are not always drawn. Starred links: 1 amine or outer side, 2 acyl side, 3 side chain; linkers in the order of their positions; H or OH if unused. Non-standard residues stand in square brackets, D forms with d. Residues, ends and D or L forms follow the SMILES beside them. No end group written: not given here. *: point of attachment. Elaidic = elaidic acid acyl on Lys side chain, CCCCCCCC/C=C/CCCCCCCC(=O)*; MetSta(3S,4S) = CSCC[C@H](N[*:1])[C@@H](O)CC(=O)[*:2]; Palmitoleoyl = CCCCCC/C=C\CCCCCCCC(=O)*; Sta = CC(C)C[C@H](N)[C@@H](O)CC(=O)O; Palmitoyl = CCCCCCCCCCCCCCCC(=O)*; PEG4 = NCCOCCOCCOCCOCCC(=O)O; PEG3 = NCCOCCOCCOCCC(=O)O; Nle = CCCC[C@H](N)C(=O)O; Palm = palmityl
# Target: BACE1 (UniProt P56817 46-501, limits assumed)
# Test: cell-based or functional assay
# Details: not given
# BACE1 (UniProt P56817 46-501, limits assumed), sequence (P56817 46-501 limits assumed): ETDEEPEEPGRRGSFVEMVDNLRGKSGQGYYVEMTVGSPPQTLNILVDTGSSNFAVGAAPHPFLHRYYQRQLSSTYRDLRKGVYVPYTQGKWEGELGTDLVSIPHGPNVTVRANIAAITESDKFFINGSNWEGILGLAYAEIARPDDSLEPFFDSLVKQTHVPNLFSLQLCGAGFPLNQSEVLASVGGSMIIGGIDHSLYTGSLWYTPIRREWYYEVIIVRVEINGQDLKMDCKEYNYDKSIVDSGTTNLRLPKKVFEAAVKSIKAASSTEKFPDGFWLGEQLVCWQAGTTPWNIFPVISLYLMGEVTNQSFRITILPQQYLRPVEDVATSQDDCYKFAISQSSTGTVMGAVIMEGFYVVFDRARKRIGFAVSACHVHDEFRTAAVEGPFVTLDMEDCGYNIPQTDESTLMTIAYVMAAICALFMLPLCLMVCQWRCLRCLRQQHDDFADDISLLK
row,Molecule,"IC50, cellular Aβ-lowering assay (Aβ40 in supernatant of HEK293 cells expressing human APP695) [µM]"
1,YPYFIPLGSGEVN[Sta]VAEFK(Palm)-NH2 (also: TFA salt) [YPYFIPL-GSG-EVN-Sta-VAEFK(Palm)-NH2 x TFA],0.041
2,YPYFIPLG[Nle]GEVN[Sta]VAEFK(Palm)-NH2 (also: TFA salt) [YPYFIPL-G-Nle-G-EVN-Sta-VAEFK(Palm)-NH2 x TFA],0.12
3,YPYFIPLGGGEVN[Sta]VAEFK(Palm)-NH2 (also: TFA salt) [YPYFIPL-GGG-EVN-Sta-VAEFK(Palm)-NH2 x TFA],0.12
4,"YPYFIPL[PEG3]EVN[MetSta(3S,4S)]VAE[dF]K(Palm)-NH2 (also: TFA salt) [YPYFIPL-PEG(3)-EVN-MetSta-VAE-DPhe-K(Palm)-NH2 x TFA]",0.041
5,YPKFIPLG[dK]GEVN[Sta]VAE[dP]K(Erucic)-NH2 (also: 3TFA salt) [YPKFIPL-GkG-EVN-Sta-VAEp-K(Erucic)-NH2 x 3TFA],0.00115
6,YPYFIPLGGSEVN[Sta]VAEFK(Palm)-NH2 (also: TFA salt) [YPYFIPL-GGS-EVN-Sta-VAEFK(Palm)-NH2 x TFA],0.053
7,YPKFIPLG[dK]GEVN[Sta]VAE[dP]K(Elaidic)-NH2 (also: 3TFA salt) [YPKFIPL-GkG-EVN-Sta-VAEp-K(Elaidic)-NH2 x 3TFA],0.00302
8,YPKFIPLG[dK]GEVN[Sta]VAE[dP]K(Palm)-NH2 (also: 3TFA salt) [YPKFIPL-GkG-EVN-Sta-VAEp-K(Palm)-NH2 x 3TFA],0.00137
9,YPKFIPLG[dK]GEVN[Sta]VAE[dP]K(Myristoleic)-NH2 (also: 3TFA salt) [YPKFIPL-GkG-EVN-Sta-VAEp-K(Myristoleic)-NH2 x 3TFA],0.208
10,YPYFIPLG[dP]GEVN[Sta]VAEFK(Palm)-NH2 (also: TFA salt) [YPYFIPL-GpG-EVN-Sta-VAEFK(Palm)-NH2 x TFA],0.048
11,YPKFIPLG[dK]GEVN[Sta]VAE[dP]K(Vaccenic)-NH2 (also: 3TFA salt) [YPKFIPL-GkG-EVN-Sta-VAEp-K(Vaccenic)-NH2 x 3TFA],0.00268
12,YPYFIPLAGGEVN[Sta]VAEFK(Palm)-NH2 (also: TFA salt) [YPYFIPL-AGG-EVN-Sta-VAEFK(Palm)-NH2 x TFA],0.053
13,"YPYFIPL[PEG4]EVN[MetSta(3S,4S)]VAE[dF]K(Palm)-NH2 (also: TFA salt) [YPYFIPL-PEG(4)-EVN-MetSta-VAE-DPhe-K(Palm)-NH2 x TFA]",0.018
14,YPYFIPLG[dA][dK]EVN[Sta]VAEFK(Palm)-NH2 (also: TFA salt) [YPYFIPL-Gak-EVN-Sta-VAEFK(Palm)-NH2 x TFA],0.098
15,YPYFIPLG[dK]GEVN[Sta]VAEFK(Palm)-NH2 (also: TFA salt) [YPYFIPL-GkG-EVN-Sta-VAEFK(Palm)-NH2 x TFA],0.064
16,YPKFIPLG[dK]GEVN[Sta]VAE[dP]K(Oleic)-NH2 (also: 3TFA salt) [YPKFIPL-GkG-EVN-Sta-VAEp-K(Oleic)-NH2 x 3TFA],0.00602
17,YPKFIPLG[dK]GEVN[Sta]VAE[dP]K(Palmitoleoyl)-NH2 (also: 3TFA salt) [YPKFIPL-GkG-EVN-Sta-VAEp-K(Palmitoleic)-NH2 x 3TFA],0.0199
18,YPYFIPLGPGEVN[Sta]VAEFK(Palm)-NH2 (also: TFA salt) [YPYFIPL-GPG-EVN-Sta-VAEFK(Palm)-NH2 x TFA],0.14

# Target: T1, BACE1 (Homo sapiens, UniProt P56817)
# T1 construct: Human HEK293 cells which are stably transfected with a vector expressing a cDNA of the human APP wt gene (APP695); endogenous in cells; host or cells: HEK293 cells stably transfected with human APP695 wt
# Test: Cellular Aβ-lowering Assay
# Assay type: cell-based
# Details: Aβ40 in culture supernatant (ELISA) of human HEK293 cells stably expressing human APP wt (APP695); 18-20 hrs incubation
# Method: The compounds were investigated in accordance with the test given hereinafter. Cellular Aβ-lowering Assay: Human HEK293 cells which are stably transfected with a vector expressing a cDNA of the human APP wt gene (APP695) were used to assess the potency of the compounds in a cellular assay. […] After blocking of non-specific binding sites with e.g. 1% BSA and washing, the culture supernatants were added in suitable dilutions together with a horseradish peroxidase-coupled Aβ detection antibody (e.g., antibody 4G8, Senetek, Maryland Heights, Mo.) and incubated for 5 to 7 hrs. Subsequently the wells of the microtiter plate were washed extensively with Tris-buffered saline containing 0.05% Tween 20 and the assay was developed with tetramethylbenzidine/H2O2 in citric acid buffer. After stopping the reaction with one volume 1 N H2SO4 the reaction was measured in an ELISA reader at 450 nm wavelength. The concentrations of Aβ in the culture supernatants were calculated from a standard curve obtained with known amounts of pure Aβ peptide.
# T1 sequence (P56817 46-501): as the sequence (P56817 46-501 limits assumed) above
row,Molecule,IC50 [µM]
1,"CCCCCCCCCCCCCCCC(=O)NCCCC[C@H](NC(=O)[C@H](Cc1ccccc1)NC(=O)[C@H](CCC(=O)O)NC(=O)[C@H](C)NC(=O)[C@@H](NC(=O)C[C@H](O)[C@H](CC(C)C)NC(=O)[C@H](CC(N)=O)NC(=O)[C@@H](NC(=O)[C@H](CCC(=O)O)NC(=O)CNC(=O)[C@H](CCCC)NC(=O)CNC(=O)[C@H](CC(C)C)NC(=O)[C@@H]1CCCN1C(=O)[C@@H](NC(=O)[C@H](Cc1ccccc1)NC(=O)[C@H](Cc1ccc(O)cc1)NC(=O)[C@@H]1CCCN1C(=O)[C@@H](N)Cc1ccc(O)cc1)[C@@H](C)CC)C(C)C)C(C)C)C(N)=O [Example 6, Tyr-Pro-Tyr-Phe-Ile-Pro-Leu-Gly-Nle-Gly-Glu-Val-Asn-Sta-Val-Ala-Glu-Phe-Lys(Palmityl)-NH2 x TFA]",0.12
2,"CCCCCCCCCCCCCCCC(=O)NCCCC[C@H](NC(=O)[C@H](Cc1ccccc1)NC(=O)[C@H](CCC(=O)O)NC(=O)[C@H](C)NC(=O)[C@@H](NC(=O)C[C@H](O)[C@H](CC(C)C)NC(=O)[C@H](CC(N)=O)NC(=O)[C@@H](NC(=O)[C@H](CCC(=O)O)NC(=O)CNC(=O)[C@H](CO)NC(=O)CNC(=O)[C@H](CC(C)C)NC(=O)[C@@H]1CCCN1C(=O)[C@@H](NC(=O)[C@H](Cc1ccccc1)NC(=O)[C@H](Cc1ccc(O)cc1)NC(=O)[C@@H]1CCCN1C(=O)[C@@H](N)Cc1ccc(O)cc1)[C@@H](C)CC)C(C)C)C(C)C)C(N)=O [Example 9, Tyr-Pro-Tyr-Phe-Ile-Pro-Leu-Gly-Ser-Gly-Glu-Val-Asn-Sta-Val-Ala-Glu-Phe-Lys(Palmityl)-NH2 x TFA] (H-YPYFIPLGSGEVN[Sta]VAEFK(Palmitoyl)-NH2; N-terminus assumed)",0.041
3,"CCCCCCCCCCCCCCCC(=O)NCCCC[C@H](NC(=O)[C@@H](Cc1ccccc1)NC(=O)[C@H](CCC(=O)O)NC(=O)[C@H](C)NC(=O)[C@@H](NC(=O)C[C@H](O)[C@H](CCSC)NC(=O)[C@H](CC(N)=O)NC(=O)[C@@H](NC(=O)[C@H](CCC(=O)O)NC(=O)CCOCCOCCOCCNC(=O)[C@H](CC(C)C)NC(=O)[C@@H]1CCCN1C(=O)[C@@H](NC(=O)[C@H](Cc1ccccc1)NC(=O)[C@H](Cc1ccc(O)cc1)NC(=O)[C@@H]1CCCN1C(=O)[C@@H](N)Cc1ccc(O)cc1)[C@@H](C)CC)C(C)C)C(C)C)C(N)=O [Example 33, Tyr-Pro-Tyr-Phe-Ile-Pro-Leu-(PEG)3-Glu-Val-Asn-MetSta-Val-Ala-Glu-DPhe-Lys(Palm)-NH2 x TFA] (H-YPYFIPL[PEG3]EVN[MetSta(3S,4S)]VAE[dF]K(Palmitoyl)-NH2; N-terminus assumed)",0.041
